# Data as given in the supplement of paper PMC7125110.
# ± gives the standard error. For some assays here: Variants at the floor of the assay were thinned out.
# B1: glmS ribozyme (parent)
# chain: AUAAAAGCGCCAGAACUACAGAAAUGUAGUUGACGAGGAGGAGGUUUAUCGAAUUUUCGGCGGAUGCCUCCAAA
# What was measured:
# Conditions in all cases: with glucosamine-6-phosphate
# [1] = variants of: B1; assay: kcat; higher = faster cleavage; RNA array
# Summary of the method: (§1)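 Barcoded ribozyme variants were transcribed in situ on sequenced MiSeq chips by E. coli RNA polymerase. At 37 °C, a hybridised Cy3 probe tracked them while glucosamine-6-phosphate (40 μM to 10 mM) in HEPES/KCl/Mg(OAc)2 buffer flowed in and tiles were imaged over ~14 h. Per-tile medians of signals normalised to baseline and to non-cleaving reference variants were fit to one- or two-exponential decays, giving kobs. kcat and KM came from weighted Michaelis–Menten fits across concentrations.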
# [2] = variants of: B1; assay: KM; higher = weaker cofactor use; RNA array
# Summary of the method: as §1
# [3] = variants of: B1; assay: self-cleavage kobs at 2500 uM GlcN6P; higher = faster cleavage; RNA array
# Summary of the method: as §1
# [4] = variants of: B1; assay: self-cleavage kobs at 10000 uM GlcN6P; higher = faster cleavage; RNA array
# Summary of the method: as §1
# [5] = variants of: B1; assay: self-cleavage kobs at 160 uM GlcN6P; higher = faster cleavage; RNA array
# Summary of the method: as §1
# [6] = variants of: B1; assay: self-cleavage kobs at 640 uM GlcN6P; higher = faster cleavage; RNA array
# Summary of the method: as §1
# [7] = variants of: B1; assay: self-cleavage kobs at 40 uM GlcN6P; higher = faster cleavage; RNA array
# Summary of the method: as §1
Variant,kcat [1] [s⁻¹],KM [2] [µM],self-cleavage kobs at 2500 uM GlcN6P [3] [s⁻¹],self-cleavage kobs at 10000 uM GlcN6P [4] [s⁻¹],self-cleavage kobs at 160 uM GlcN6P [5] [s⁻¹],self-cleavage kobs at 640 uM GlcN6P [6] [s⁻¹],self-cleavage kobs at 40 uM GlcN6P [7] [s⁻¹]
A15U C58A,0.000154 ± 5.6e-06,3640 ± 360,6.38e-05 ± 1.2e-05,0.000113 ± 1e-05,–,–,–
A15U C58U,8.55e-05 ± 9.3e-06,3320 ± 980,3.46e-05 ± 8.3e-06,6.48e-05 ± 8.4e-06,–,–,–
A14U C70G,0.000149 ± 3.1e-05,–,0.000147 ± 1.8e-05,–,5.56e-05 ± 7.3e-06,8.73e-05 ± 9.3e-06,–
A14U C70A,0.000118 ± 4.4e-06,568 ± 71,9.59e-05 ± 1e-05,0.000112 ± 1.1e-05,2.57e-05 ± 8.7e-06,6.15e-05 ± 8e-06,–
A15U U46G,0.000901 ± 0.00012,1650 ± 380,0.000642 ± 8.4e-05,0.000725 ± 7.1e-05,6.81e-05 ± 1e-05,0.000292 ± 3.4e-05,–
A15U A48C,2.45e-05 ± 3.9e-06,–,–,–,–,–,–
A15C A42U,1.58e-05 ± 3.7e-06,–,–,–,< 1e-05,–,< 1e-05
A15G C67A,0.00627 ± 0.0024,–,0.00376 ± 0.00071,0.00896 ± 0.0018,0.000961 ± 0.00011,0.00406 ± 0.0007,0.000534 ± 0.00011
C16A G63U,< 1e-05,–,–,< 1e-05,< 1e-05,–,< 1e-05
A14U C68A,2.98e-05 ± 1e-05,–,3.98e-05 ± 1.4e-05,–,–,–,–
A15C U46G,0.00166 ± 0.00022,3240 ± 690,0.000681 ± 0.00011,0.00129 ± 0.00019,8.08e-05 ± 2.2e-05,0.000271 ± 4.6e-05,–
A15C G37A,0.000686 ± 9.5e-05,4650 ± 1200,0.000226 ± 3.7e-05,0.000471 ± 4.5e-05,–,9.31e-05 ± 1.5e-05,–
C16A C50U,< 1e-05,–,–,–,–,–,< 1e-05
A15C G40U,0.000399 ± 4.3e-05,1140 ± 230,0.000333 ± 5.3e-05,0.000348 ± 4.2e-05,5.39e-05 ± 1e-05,0.000135 ± 1.4e-05,–
A15C U47C C71U,0.000301 ± 5.9e-06,867 ± 47,0.000228 ± 4.9e-05,0.000275 ± 4.5e-05,–,0.000129 ± 2.7e-05,–
A15G U57C C58A,3.45e-05 ± 4.1e-06,–,–,3.05e-05 ± 1.1e-05,–,–,–
C16A U30A,0.00139 ± 0.00047,–,0.00154 ± 0.00022,0.00109 ± 0.00017,0.000164 ± 3e-05,0.000316 ± 5.7e-05,3.95e-05 ± 8.3e-06
A15U G63A,< 1e-05,–,–,< 1e-05,–,–,–
